# According to the supplement of paper PMC10724198:
# ± gives the standard deviation of the averaged measurements.
# What was measured:
# Saccharomyces cerevisiae [1] = experiment: protein stability index of tFT-peptide fusion (C-terminal peptide) (PSI (0-1 scale)); higher = more stable (slower turnover); settings: genetic background: wild type; temperature: 30 C
# Saccharomyces cerevisiae [2] = experiment: as above
# Experimental: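 MPS profiling in S. cerevisiae of the tFT-X12 degron library: putative degron peptides plus stable controls, 12 aa, fused to the C-terminus of a sfGFP-mCherry timer. Cells are FACS-sorted into 8 mCherry/sfGFP bins and deep-sequenced. PSI runs from 0 (unstable) to 1 (stable). Backgrounds are wild type, das1Δ and doa10Δ at 30 °C, and wild type, das1Δ, cdc34-1 and cdc53-1 at 37 °C; 2-3 technical replicates each.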
# [3] = genetic background: cdc34-1, temperature: 37 C
# [4] = genetic background: cdc53-1, temperature: 37 C
# [5] = genetic background: das1 deletion, temperature: 30 C
# [6] = genetic background: das1 deletion, temperature: 37 C
# [7] = genetic background: doa10 deletion, temperature: 30 C
# [8] = genetic background: wild type, temperature: 30 C
# [9] = genetic background: wild type, temperature: 37 C
# 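Further: PSI is a weighted mean of sequencing reads over stability bins, variants kept only with over 10 reads, mCherry proximal and sfGFP distal, peptide attached via GGGS linker.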
Sequence,protein stability index (Saccharomyces cerevisiae [1]),protein stability index (Saccharomyces cerevisiae [2]; [3]),protein stability index (Saccharomyces cerevisiae [2]; [4]),protein stability index (Saccharomyces cerevisiae [2]; [5]),protein stability index (Saccharomyces cerevisiae [2]; [6]),protein stability index (Saccharomyces cerevisiae [2]; [7]),protein stability index (Saccharomyces cerevisiae [2]; [8]),protein stability index (Saccharomyces cerevisiae [2]; [9])
IRHALHFRVVAV,0.48 ± 0.0076,0.505 ± 0.035,0.545 ± 0.016,0.432 ± 0.015,0.568 ± 0.0082,0.3943 ± 0.0036,0.419 ± 0.013,0.5286 ± 0.0022
IRWCLVSVFYVV,0.192 ± 0.038,0.214 ± 0.028,0.364 ± 0.033,0.245 ± 0.033,0.444 ± 0.01,0.0753 ± 0.012,0.0978 ± 0.02,0.13554 ± 0.00011
ISAVLFFLYLSF,0.308 ± 0.025,0.163 ± 0.008,0.108 ± 0.019,0.24 ± 0.018,0.326 ± 0.0042,0.459 ± 0.035,0.246 ± 0.017,0.272 ± 0.009
IVVSSRFLGFFC,0.2 ± 0.0025,0.53 ± 0.073,0.701 ± 0.07,0.62 ± 0.032,0.742 ± 0.0077,0.0947 ± 0.012,0.102 ± 0.012,0.18 ± 0.0083
IWRGGSAVPMIC,0.267 ± 0.058,0.627 ± 0.075,0.686 ± 0.022,0.572 ± 0.025,0.721 ± 0.013,0.167 ± 0.0098,0.195 ± 0.023,0.351 ± 0.02
IYTLIINKSKAQ,0.429 ± 0.041,0.686 ± 0.024,0.685 ± 0.011,0.626 ± 0.046,0.696 ± 0.072,0.282 ± 0.024,0.362 ± 0.11,0.524 ± 0.017
KDIFQIYTLYVF,0.39 ± 0.034,0.407 ± 0.011,0.4611 ± 0.0014,0.329 ± 0.035,0.502 ± 0.023,0.277 ± 0.0099,0.3 ± 0.022,0.467 ± 0.012
KFWVVLIEIKYH,0.172 ± 0.0091,0.0696 ± 0.0057,0.132 ± 0.03,0.159 ± 0.036,0.35 ± 0.092,0.0681 ± 0.015,0.0691 ± 0.036,0.1043 ± 0.00085
KGSKGELGVHVG,0.671 ± 0.34,0.686 ± 0.03,0.712 ± 0.013,0.63 ± 0.016,0.728 ± 0.0034,0.628 ± 0.023,0.634 ± 0.021,0.6889 ± 0.0015
KIILMCYTLITL,0.264 ± 0.015,0.255 ± 0.033,0.347 ± 0.041,0.228 ± 0.039,0.43 ± 0.018,0.2009 ± 0.0016,0.225 ± 0.017,0.413 ± 0.04
KIKQIKINNKIN,0.157 ± 0.0073,0.43 ± 0.0033,0.654 ± 0.13,0.703 ± 0.026,0.758 ± 0.043,0.0896 ± 0.034,0.092 ± 0.032,0.145 ± 0.04
KKIKKYTRKLKI,0.455 ± 0.048,0.707 ± 0.0088,0.765 ± 0.014,0.673 ± 0.05,0.719 ± 0.053,0.323 ± 0.014,0.383 ± 0.02,0.63 ± 0.0069
KKKKRVKIQKKN,0.404 ± 0.03,0.628 ± 0.059,0.707 ± 0.052,0.683 ± 0.041,0.689 ± 0.041,0.259 ± 0.04,0.244 ± 0.061,0.446 ± 0.009
KKNLTHSIRVQA,0.505 ± 0.025,0.62 ± 0.028,0.717 ± 0.0094,0.567 ± 0.033,0.696 ± 0.011,0.352 ± 0.017,0.377 ± 0.021,0.585 ± 0.015
KMKGLINKRKES,0.219 ± 0.0027,0.533 ± 0.05,0.657 ± 0.01,0.655 ± 0.037,0.68 ± 0.015,0.146 ± 0.0029,0.12 ± 0.05,0.233 ± 0.027
KNVFLIRGRKNC,0.356 ± 0.098,0.627 ± 0.054,0.689 ± 0.0093,0.638 ± 0.029,0.721 ± 0.018,0.154 ± 0.021,0.193 ± 0.014,0.41 ± 0.017
KSRLFCFVYFLL,0.167 ± 0.013,0.333 ± 0.011,0.413 ± 0.013,0.311 ± 0.032,0.501 ± 0.007,0.137 ± 0.0024,0.141 ± 0.02,0.17 ± 0.0063
KTDVYPVSFFTC,0.184 ± 0.028,0.532 ± 0.013,0.738 ± 0.0099,0.645 ± 0.043,0.711 ± 0.055,0.0924 ± 0.019,0.0951 ± 0.026,0.133 ± 0.013
KVLLYWRHAQRQ,0.548 ± 0.11,0.652 ± 0.052,0.6916 ± 0.006,0.654 ± 0.019,0.733 ± 0.01,0.387 ± 0.0069,0.44 ± 0.0086,0.611 ± 0.013
KYKLYGIMIIEG,0.329 ± 0.078,0.39 ± 0.066,0.464 ± 0.016,0.283 ± 0.039,0.472 ± 0.026,0.258 ± 0.012,0.262 ± 0.013,0.462 ± 0.04

Sequence,protein stability index (Saccharomyces cerevisiae [1]),protein stability index (Saccharomyces cerevisiae [2]; [3]),protein stability index (Saccharomyces cerevisiae [2]; [4]),protein stability index (Saccharomyces cerevisiae [2]; [5]),protein stability index (Saccharomyces cerevisiae [2]; [6]),protein stability index (Saccharomyces cerevisiae [2]; [7]),protein stability index (Saccharomyces cerevisiae [2]; [8]),protein stability index (Saccharomyces cerevisiae [2]; [9])
LAGLVRFWGCVG,0.341 ± 0.0037,0.622 ± 0.022,0.7111 ± 0.0023,0.656 ± 0.015,0.748 ± 0.019,0.122 ± 0.019,0.141 ± 0.03,0.236 ± 0.0026
LASSCYRHLLVV,0.137 ± 0.002,0.242 ± 0.0047,0.323 ± 0.0065,0.289 ± 0.029,0.4343 ± 0.0036,0.0628 ± 0.016,0.0775 ± 0.017,0.078 ± 0.044
LCCTLFFCYSYH,0.424 ± 0.013,0.569 ± 0.032,0.547 ± 0.064,0.418 ± 0.017,0.554 ± 0.038,0.374 ± 0.0053,0.388 ± 0.019,0.617 ± 0.098
LCSCMWISAIAI,0.445 ± 0.0055,0.5594 ± 0.0027,0.574 ± 0.006,0.435 ± 0.024,0.582 ± 0.014,0.41 ± 0.036,0.435 ± 0.027,0.533 ± 0.039
LCSLPIVCCFFL,0.489 ± 0.029,0.513 ± 0.015,0.552 ± 0.016,0.434 ± 0.031,0.5703 ± 0.0027,0.424 ± 0.016,0.427 ± 0.022,0.534 ± 0.016
LCVGFISFCFCL,0.47934 ± 0.00045,0.48 ± 0.032,0.4954 ± 0.0039,0.451 ± 0.0075,0.53 ± 0.015,0.434 ± 0.01,0.435 ± 0.014,0.512 ± 0.017
LCYFFFISLFLG,0.328 ± 0.0056,0.628 ± 0.032,0.572 ± 0.014,0.465 ± 0.021,0.55 ± 0.0089,0.2248 ± 0.0011,0.26 ± 0.023,0.403 ± 0.0052
LFGFILLGVSCC,0.211 ± 0.029,0.0506 ± 0.0034,0.0719 ± 0.0073,0.164 ± 0.029,0.22 ± 0.0022,0.156 ± 0.0021,0.168 ± 0.024,0.193 ± 0.015
LFLIFFSFLFLC,0.166 ± 0.028,0.135 ± 0.041,0.0847 ± 0.014,0.206 ± 0.024,0.26132 ± 1.1e-05,0.211 ± 0.0073,0.114 ± 0.04,0.141 ± 0.02
LFLIYCFAFSIG,0.367 ± 0.049,0.258 ± 0.083,0.328 ± 0.032,0.22 ± 0.034,0.4171 ± 0.00091,0.194 ± 0.02,0.239 ± 0.021,0.366 ± 0.014
LFNRCCTILVVW,0.299 ± 0.016,0.189 ± 0.025,0.22 ± 0.026,0.198 ± 0.02,0.343 ± 0.01,0.181 ± 0.0051,0.2 ± 0.029,0.316 ± 0.021
LFSVFSLVLFIF,0.427 ± 0.091,0.338 ± 0.0079,0.413 ± 0.011,0.34 ± 0.029,0.501 ± 0.0086,0.316 ± 0.017,0.272 ± 0.023,0.454 ± 0.0073
LFVSLSFVVFLP,0.34 ± 0.077,0.276 ± 0.0041,0.381 ± 0.014,0.26 ± 0.037,0.421 ± 0.013,0.261 ± 0.013,0.261 ± 0.025,0.391 ± 0.0072
LFVVFVLLTFFV,0.279 ± 0.089,0.231 ± 0.039,0.253 ± 0.0056,0.243 ± 0.032,0.337 ± 0.014,0.207 ± 0.02,0.217 ± 0.031,0.29 ± 0.011
LGSCSLIYRKFS,0.204 ± 0.0059,0.597 ± 0.026,0.728 ± 0.017,0.639 ± 0.02,0.703 ± 0.029,0.0934 ± 0.0075,0.0958 ± 0.017,0.172 ± 0.021
LHLSSFVILLEL,0.421 ± 0.021,0.36297 ± 6.8e-05,0.317 ± 0.035,0.353 ± 0.024,0.458 ± 0.018,0.478 ± 0.023,0.346 ± 0.014,0.437 ± 0.021
LIEMVTTRYRLC,0.242 ± 0.044,0.59 ± 0.02,0.7192 ± 0.0016,0.622 ± 0.016,0.717 ± 0.034,0.132 ± 0.0065,0.128 ± 0.02,0.189 ± 0.018
LKTKKKKTNTQK,0.495 ± 0.037,0.627 ± 0.0068,0.633 ± 0.057,0.717 ± 0.03,0.68 ± 0.038,0.67 ± 0.033,0.715 ± 0.056,0.683 ± 0.0086
LLCLLLVPQPHR,0.0268 ± 0.019,0.604 ± 0.015,0.66 ± 0.011,0.5965 ± 0.0049,0.651 ± 0.017,0.574 ± 0.027,0.584 ± 0.019,0.6376 ± 0.003
